The values below come from KR20180129514A (dated 2018).

The target in this experiment is T1, mCherry H-RAS G12V (NIH3T3 세포주에서 발현) (UniProt P01112 1-186).
T1 construct: whole, on cells; Intracellular, at the inner face of the cell membrane; also called 세포내 활성화된 H-RAS G12V 돌연변이; 활성화된 RAS; not shown: mCherry red fluorescent protein
In words: confocal microscopy, overlap in NIH3T3 cells expressing mCherry H-RAS G12V.

B1: 세포질 침투 항체 TMab4 (antibody, V domains shown)
VH: EVQLVESGGGLVQPGGSLRLSCAASGYTFTSYVMHWVRQAPGKGLEWVSAINPYNDGNYYADSVKGRFTISRDNSRKTLYLQMNSLRAEDTAVYYCARGAYKRGYAMDYWGQGTTVTVSS
VL: DLVMTQSPSSLSASVGDRVTITCKSSQSLFNSRTRKNYLAWYQQKPGKAPKLLIYWASTRESGVPSRFSGSGSGTDFTLTISSLQPEDFATYYCQQYYYHMYTFGQGTKVEIKR
notes: Full IgG format (CH1-hinge-CH2-CH3 and CL, detected with anti-human Fc); also called cytotransmab; CT
For B1, the binding result is recorded as “no binding (tested: 2 μM)”.
